The source of these data is publication doi:10.1101/827477.

This assay deals with BG505_mut123_N241 SOSIP (HIV-1 (subtype A, BG505)) (UniProt Q2N0S6). The assay can be described thus: negative-stain EM.

B1: 13B Fab (Fab, V domains shown)
VH: LEESGGGLVQPEGSLTLTCKASGFDFSDYHVQWVRQSPGKGLEFIGGIAYTGNIYYASWAKGRFTISKTSSTTVTLQMTTLTAADTATYFCARAYGYASAPYAQYFNLWGPGTLVTVSS
VL: DIVMTQTPASVSEPVGGTVTINCQASQSRGNNYLSWYQQKPGQSPSLLIYRTSTLASGVPSRFKGSGSGTQFTLTISDLECADAATYYCLYGYYSSRNPDFAFGGGTEVVVK
In the case of B1, the percent of particles with no Fab bound was found to be 57% and the percent of particles with one Fab bound was 43%.
